Values of other authors as cited in PMC3667669.
Where two headings read alike, the source gives them in different places.

Experiments:
Cdc42 (Homo sapiens) [1] = target: Cdc42 (Homo sapiens) (UniProt P60953)
Cdc42 (Homo sapiens) [2] = target: Cdc42 (Homo sapiens) (UniProt P60953); remark: listed apart in the source

Sequence of Cdc42 (Homo sapiens) (P60953 1-188): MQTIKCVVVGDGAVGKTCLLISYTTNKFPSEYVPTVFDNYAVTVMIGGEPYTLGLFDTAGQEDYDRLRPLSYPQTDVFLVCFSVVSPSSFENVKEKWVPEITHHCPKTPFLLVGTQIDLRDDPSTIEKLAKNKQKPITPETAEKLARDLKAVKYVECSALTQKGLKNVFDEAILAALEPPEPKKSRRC
Sequence of CBD fragment CBD (P42768 201-321): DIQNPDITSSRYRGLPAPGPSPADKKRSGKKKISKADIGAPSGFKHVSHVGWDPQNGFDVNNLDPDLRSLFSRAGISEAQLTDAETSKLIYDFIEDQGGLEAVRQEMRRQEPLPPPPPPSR
Sequence of mero221-CBD CBD (P42768 201-321): as above

| Kd (Cdc42 (Homo sapiens) [1]) | Kd (Cdc42 (Homo sapiens) [2]) | Substance |
| --- | --- | --- |
| 150 nM | – | mero221-CBD CBD (from UniProt P42768) |
| – | 77 nM | CBD fragment CBD (from UniProt P42768) |
